{"source": "IntAct's records for PubMed 31515488", "parents": {"B1": {"name": "Coiled-coil domain-containing protein 33 (Homo sapiens), Q8N5R6-5 (parent)", "chain": "MGEPGPPSPPAPKAAPGLIDSFSEMNNYRRAMQKMAEDILSLRRQASILEGENRILRSRLAQQEEEEGQGKASEAQNTVSMKQKLLLSELDMKKLRDRVQHLQNELIRKNDREKELLLLYQAQQPQAALLKQYQGKLQKMKALEETVRHQEKVIEKMERVLEDRLQDRSKPPPLNRQQGKPYTGFPMLSASGLPLGSMGENLPVELYSVLLAENAKLRTELDKNRHQQAPIILQQQALPVDPGELGAGGDLTERLQETHGPGHSECTETLPAQDLLSGTSDKFNLLAKLEHAQSRILSLESQLEDSARRWGREKQDLATRLQEQEKGFRHPSNSIIIEQPVSDPPGVAPRGSGGGAGSHRTPKVTGP"}, "B2": {"name": "Zinc finger CCCH-type with G patch domain-containing protein (Homo sapiens), Q8N5A5 (parent)", "chain": "MDEESLESALQTYRAQLQQVELALGAGLDSSEQADLRQLQGDLKELIELTEASLVSVRKSSLLAALDEERPGRQEDAEYQAFREAITEAVEAPAAARGSGSETVPKAEAGPESAAGGQEEEEGEDEEELSGTKVSAPYYSSWGTLEYHNAMVVGTEEAEDGSAGVRVLYLYPTHKSLKPCPFFLEGKCRFKENCRFSHGQVVSLDELRPFQDPDLSSLQAGSACLAKHQDGLWHAARITDVDNGYYTVKFDSLLLREAVVEGDGILPPLRTEATESDSDSDGTGDSSYARVVGSDAVDSAQSSALCPSLAVVGSDAVDSGTCSSAFAGWEVHTRGIGSRLLTKMGYEFGKGLGRHAEGRVEPIHAVVLPRGKSLDQCVETLQKQTRVGKAGTNKPPRCRGRGARPGGRPAPRNVFDFLNEKLQGQAPGALEAGAAPAGRRSKDMYHASKSAKRALSLRLFQTEEKIERTQRDIRSIQEALARNAGRHSVASAQLQEKLAGAQRQLGQLRAQEAGLQQEQRKADTHKKMTEF"}, "B3": {"name": "Methylthioribulose-1-phosphate dehydratase (Homo sapiens), Q96GX9 (parent)", "chain": "MSGCDAREGDCCSRRCGAQDKEHPRYLIPELCKQFYHLGWVTGTGGGISLKHGDEIYIAPSGVQKERIQPEDMFVCDINEKDISGPSPSKKLKKSQCTPLFMNAYTMRGAGAVIHTHSKAAVMATLLFPGREFKITHQEMIKGIKKCTSGGYYRYDDMLVVPIIENTPEEKDLKDRMAHAMNEYPDSCAVLVRRHGVYVWGETWEKAKTMCECYDYLFDIAVSMKKVGLDPSQLPVGENGIV", "partner": "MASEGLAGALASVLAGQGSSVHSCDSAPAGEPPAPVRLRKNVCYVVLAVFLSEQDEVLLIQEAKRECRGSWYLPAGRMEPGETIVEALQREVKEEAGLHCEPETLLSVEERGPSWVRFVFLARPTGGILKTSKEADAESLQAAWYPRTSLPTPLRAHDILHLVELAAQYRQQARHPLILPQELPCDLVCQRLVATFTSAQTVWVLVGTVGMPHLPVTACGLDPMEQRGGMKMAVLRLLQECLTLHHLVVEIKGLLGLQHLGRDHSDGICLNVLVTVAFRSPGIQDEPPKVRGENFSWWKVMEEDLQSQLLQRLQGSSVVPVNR"}, "B4": {"name": "Coiled-coil domain-containing glutamate-rich protein 1 (Homo sapiens), Q8TC90 (parent)", "chain": "MTQTLDTREDPLNLGGGGGGGCGCGWAHSASLSSWSSCHRRRPGAPAYNRPHRYSPKTEYGPPRKQPKQQHGPGFWFQPPVCSNWGCWGGPWRPPPPGFWKFPCPVQVFRVYGLHPLCFCCCSCWSGSWNPGWVKPPGRKKRWGRRGRGLRHHPRHSYPRSPPADVSTLPRPVKLYEWREPGMRAPPNTTQFIMNQIYEDMRQQEKVERQQEALRAQKATVSGEASPARSSGNDAPPGGSKETWGLQETLYGFVQNPSLAFSPNPEENQSLAPLLVEEEEEKKNDDEEEYDQEVCDAKEASEEEEEVEDEEEEVEDEEEEEVEEAEYVEEGEEELEEEELEEEEEVLEENEQRGEEFHLPLEMPLSIFVEAEEKRENFISCTFLNPEQIIPKVPQESLFMAQDFNC"}, "B5": {"name": "Proline-rich protein 14 (Homo sapiens), Q9BWN1 (parent)", "chain": "MDLPGDSSPPGQPRLCRQPLTRALWGARSPKRPRLQLPGAPSPLEKASRRVLAVVLEDVMAVHMVPVVPSKQTSIPQHHSYHQDPVHRQPPASPPRQAGWSSQARPPDPLCLCREPLSRIHRTSSTLRRRSRTTPGPEEGPSQKVDRAPQPTLVVMLEDIASPRPPAEGFIDETPNFIIPAQRAEPMRIVRQPTPPPGDLEPPFQPSALPADPLESPPTAPDPALELPSTPPPSSLLRPRLSPWGLAPLFRSVRSKLESFADIFLTPNKTPQPPPPSPPMKLELKIAISEAEQSGAAEGTASVSPRPPIRQWRTQDHNTPALLPKPSLGRSYSCPDLGPPGPGTCTWPPAPPQPSRPRPRRHTVGGGEMARAPPPPRPCLRKEVFPLGGVGASPSLTTSCSSTASTSFSEPAEPRLGSTKGKEPRASKDQVLSEPETKTMGKVSRFRIRRTPARPQLNLTPMGLPRPIRLNKKEFSLEEIYTNKNYQSPTTRRTFETIFEEPRERNGTLIFTSSRKLRRAVEFRDSSLPRSRRPSRGVRAAGGRTVPPNVAPSPDVGPLLQQRLEELDALLLEEETVDREQPHWT"}, "B6": {"name": "Late cornified envelope protein 1B (Homo sapiens), Q5T7P3 (parent)", "chain": "MSCQQNQQQCQPPPKCIPKCPPKCLTPRCPPKCPPKCPPVSSCCSVSSGGCCGSSSGGSCGSSSGGCCSSGGGGCCLSHHRRRRSHCHRPQSSGCCSQPSGGSSCCGGGSGQHSGGCC"}}}
{"variants_of": "B1", "conditions": "with smad3_human SMAD3, P84022"}
{"variant": "M25V", "effect of a mutation on the interaction": "with no effect"}
{"variant": "G196R", "effect of a mutation on the interaction": "with no effect"}
{"variants_of": "B1", "conditions": "with aakb2_human PRKAB2, O43741"}
{"variant": "M25V", "effect of a mutation on the interaction": "with no effect"}
{"variant": "G196R", "effect of a mutation on the interaction": "with no effect"}
{"variants_of": "B1", "conditions": "with blk_human BLK"}
{"variant": "M25V", "effect of a mutation on the interaction": "with no effect"}
{"variant": "G196R", "effect of a mutation on the interaction": "with no effect"}
{"variants_of": "B1", "conditions": "with ptk6_human PTK6, Q13882"}
{"variant": "S73N", "effect of a mutation on the interaction": "with no effect"}
{"variants_of": "B1", "conditions": "with bccip_human BCCIP"}
{"variant": "S73N", "effect of a mutation on the interaction": "with no effect"}
{"variants_of": "B2", "conditions": "with tfp11_human TFIP11, Q9UBB9"}
{"variant": "S61R", "effect of a mutation on the interaction": "with no effect"}
{"variants_of": "B2", "conditions": "with cep70_human CEP70, Q8NHQ1"}
{"variant": "S61R", "effect of a mutation on the interaction": "with no effect"}
{"variants_of": "B2", "conditions": "with ldoc1_human LDOC1, O95751"}
{"variant": "S61R", "effect of a mutation on the interaction": "with no effect"}
{"variants_of": "B3", "conditions": "with nud18_human NUDT18, Q6ZVK8"}
{"variant": "G111A", "effect of a mutation on the interaction": "with no effect"}
{"variant": "M181V", "effect of a mutation on the interaction": "with no effect"}
{"variants_of": "B4", "conditions": "with pls1_human PLSCR1, O15162"}
{"variant": "E293K", "effect of a mutation on the interaction": "with no effect"}
{"variants_of": "B4", "conditions": "with nt2na_human NOTCH2NLA"}
{"variant": "E293K", "effect of a mutation on the interaction": "with no effect"}
{"variants_of": "B5", "conditions": "with cbx5_human CBX5, P45973"}
{"variant": "P359L", "effect of a mutation on the interaction": "with no effect"}
{"variant": "R114L", "effect of a mutation on the interaction": "with no effect"}
{"variants_of": "B6", "conditions": "with rgs20_human RGS20, O76081"}
{"variant": "R83H", "effect of a mutation on the interaction": "with no effect"}
{"variants_of": "B6", "conditions": "with kra32_human KRTAP3-2, Q9BYR7"}
{"variant": "R83H", "effect of a mutation on the interaction": "with no effect"}
{"variants_of": "B6", "conditions": "with hxa1_human HOXA1, P49639"}
{"variant": "H113Q", "effect of a mutation on the interaction": "with no effect"}
{"variants_of": "B6", "conditions": "with nt2na_human NOTCH2NLA"}
{"variant": "H113Q", "effect of a mutation on the interaction": "with no effect"}
{"variants_of": "B6", "conditions": "with kr101_human KRTAP10-1, P60331"}
{"variant": "H113Q", "effect of a mutation on the interaction": "with no effect"}
{"variants_of": "B6", "conditions": "with otx1_human OTX1, P32242"}
{"variant": "H113Q", "effect of a mutation on the interaction": "with no effect"}
